Test results: paper PMC3094553

Biological target: PF0699 (conserved hypothetical protein) (Pyrococcus furiosus) (UniProt Q8U2X9)
Assay: SAXS

Q: How did the stoichiometry N turn out when “PF0699 (conserved hypothetical protein) (from UniProt Q8U2X9 1-139) (natural protein)” was run?
A: The stoichiometry N was 2.
